Reference: US20230242903A1

Legend:
Assay in all cases: cell-based or functional assay
Halo-TAL1(F238D) (human) = Halo-TAL1(F238D) (human) (UniProt P17542)
Halo-TAL1 (human) = Halo-TAL1 (human) (UniProt P17542)
Halo-LMO2 (human) = Halo-LMO2 (human) (UniProt P25791)
Halo-LYL1 (human) = Halo-LYL1 (human) (UniProt P12980)
Halo-LYL1(F201D) (human) = Halo-LYL1(F201D) (human) (UniProt P12980)

UniProt P25791, sequence (P25791 whole entry): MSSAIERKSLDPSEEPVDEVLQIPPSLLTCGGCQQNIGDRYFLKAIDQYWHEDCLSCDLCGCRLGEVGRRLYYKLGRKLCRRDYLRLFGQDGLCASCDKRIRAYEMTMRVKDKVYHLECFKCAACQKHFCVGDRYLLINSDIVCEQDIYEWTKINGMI

Halo-TAL1(F238D) t1/2 with HA-LDB1 co-expressed, HaloLife assay (Halo-TAL1(F238D) (human)) [h] | Halo-TAL1 t1/2 with HA-LDB1 co-expressed in the presence of LMO2, HaloLife assay (Halo-TAL1 (human)) [h] | Halo-LMO2 t1/2, HaloLife pulse chase in Jurkat cells (6.6 hours without co-expression) (Halo-LMO2 (human)) [h] | Halo-LYL1 t1/2 with HA-LDB1 co-expressed in the presence of LMO2, HaloLife assay (Halo-LYL1 (human)) [h] | Halo-LYL1(F201D) t1/2 with HA-LDB1 co-expressed, HaloLife assay (Halo-LYL1(F201D) (human)) [h] | Substance
10.7 | 19.9 | 20.6 | 20.5 | 3.7 | HA-LDB1 (from UniProt Q86U70 1-375)
 |  | 4 |  |  | HA-LDB1ΔLID (from UniProt Q86U70 1-375)
